Laboratory results as given in the supplement of paper PMC7125110.
± gives the standard error. For part of these data: Variants at the floor of the assay were thinned out.

B1: glmS ribozyme (parent)
chain: AUAAAAGCGCCAGAACUACAGAAAUGUAGUUGACGAGGAGGAGGUUUAUCGAAUUUUCGGCGGAUGCCUCCAAA

What was measured:
Details in all cases: with glucosamine-6-phosphate
glucosamine-6-phosphate [1] = variants of: B1; assay: kcat; higher = faster cleavage; RNA array
In short: (§1)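 Barcoded ribozyme variants, transcribed in situ by E. coli RNA polymerase on sequenced MiSeq chips, were followed via a hybridised Cy3 probe at 37 °C. Glucosamine-6-phosphate ranged from 40 μM to 10 mM in HEPES/KCl/Mg(OAc)2 buffer. kobs came from decay fits to per-tile medians, and kcat and KM from weighted Michaelis–Menten fits.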

glucosamine-6-phosphate [2] = variants of: B1; assay: self-cleavage kobs at 40 uM GlcN6P; higher = faster cleavage; RNA array
In short: as §1

glucosamine-6-phosphate [3] = variants of: B1; assay: self-cleavage kobs at 10000 uM GlcN6P; higher = faster cleavage; RNA array
In short: as §1

glucosamine-6-phosphate [4] = variants of: B1; assay: self-cleavage kobs at 640 uM GlcN6P; higher = faster cleavage; RNA array
In short: as §1

glucosamine-6-phosphate [5] = variants of: B1; assay: self-cleavage kobs at 2500 uM GlcN6P; higher = faster cleavage; RNA array
In short: as §1

glucosamine-6-phosphate [6] = variants of: B1; assay: self-cleavage kobs at 160 uM GlcN6P; higher = faster cleavage; RNA array
In short: as §1

glucosamine-6-phosphate [7] = variants of: B1; assay: KM; higher = weaker cofactor use; RNA array
In short: as §1

Variant | kcat (glucosamine-6-phosphate [1]) [s⁻¹] | self-cleavage kobs at 40 uM GlcN6P (glucosamine-6-phosphate [2]) [s⁻¹] | self-cleavage kobs at 10000 uM GlcN6P (glucosamine-6-phosphate [3]) [s⁻¹] | self-cleavage kobs at 640 uM GlcN6P (glucosamine-6-phosphate [4]) [s⁻¹] | self-cleavage kobs at 2500 uM GlcN6P (glucosamine-6-phosphate [5]) [s⁻¹] | self-cleavage kobs at 160 uM GlcN6P (glucosamine-6-phosphate [6]) [s⁻¹] | KM (glucosamine-6-phosphate [7]) [µM]
G62C U69G | 1.62e-05 ± 2.9e-06 | – | – | – | – | – | –
G62U C67A | < 1e-05 | < 1e-05 | < 1e-05 | – | – | – | –
G63U C70G | 2.12e-05 ± 4.8e-06 | – | – | 2.59e-05 ± 1.1e-05 | 2.19e-05 ± 1e-05 | – | –
C58G G60U | < 1e-05 | < 1e-05 | – | < 1e-05 | < 1e-05 | < 1e-05 | –
C58A C71A | 5.74e-05 ± 1e-05 | – | 4.88e-05 ± 9.7e-06 | 3.29e-05 ± 1.3e-05 | 7.33e-05 ± 1.5e-05 | – | –
C58A A64G C71A | 2.69e-05 ± 7.4e-06 | – | – | – | – | – | –
C58G C61G | 3.21e-05 ± 1e-05 | – | – | 5.63e-05 ± 2.4e-05 | – | – | –
U57G C68A | 2.56e-05 ± 8.2e-06 | – | – | 3.37e-05 ± 1.4e-05 | – | – | –
A64U C67U | 5.93e-05 ± 6.4e-06 | – | 5.31e-05 ± 6.3e-06 | – | 5.62e-05 ± 8.7e-06 | – | –
A64U C67A | 2.58e-05 ± 3.2e-06 | – | 2.41e-05 ± 6.5e-06 | – | – | – | –
G63A C70A | 1.85e-05 ± 4.5e-06 | – | – | – | – | – | –
G63A C70G | 3.27e-05 ± 9.7e-06 | – | – | 4.94e-05 ± 1.3e-05 | 3.19e-05 ± 9.4e-06 | – | –
C58A G66A | 0.000322 ± 5.8e-05 | – | 0.000228 ± 2.8e-05 | 4.87e-05 ± 1e-05 | 9.9e-05 ± 1.6e-05 | – | 4640 ± 1500
G59A C71U | 6.15e-05 ± 1.4e-06 | < 1e-05 | 5.51e-05 ± 6.9e-06 | – | 4.05e-05 ± 7.8e-06 | – | 1210 ± 130
A64C C68A | < 1e-05 | < 1e-05 | < 1e-05 | – | – | – | –
G60A C70G | 1.99e-05 ± 7.1e-06 | – | – | – | – | – | –
G60A C70U | 3.47e-05 ± 4e-06 | < 1e-05 | 3.02e-05 ± 6.5e-06 | – | 1.93e-05 ± 9.2e-06 | – | –
A64U G66U | < 1e-05 | < 1e-05 | – | – | – | – | –
G60A G63C | < 1e-05 | – | < 1e-05 | – | < 1e-05 | < 1e-05 | –
U57G G66A | 2.15e-05 ± 3.2e-06 | < 1e-05 | – | – | – | – | –
C58U G66C | < 1e-05 | – | – | < 1e-05 | – | < 1e-05 | –
U57G C71A | 3.11e-05 ± 9.7e-06 | – | – | 4.65e-05 ± 1.5e-05 | 3.2e-05 ± 1.5e-05 | – | –
U57C C68A | 1.48e-05 ± 1.3e-06 | – | < 1e-05 | – | – | – | 184 ± 90
U57C C68U | 6e-05 ± 5.6e-07 | – | 5.36e-05 ± 6e-06 | – | 3.96e-05 ± 1.4e-05 | – | 1210 ± 64
A64G C68A | < 1e-05 | – | – | – | – | – | –

Variant | kcat (glucosamine-6-phosphate [1]) [s⁻¹] | self-cleavage kobs at 40 uM GlcN6P (glucosamine-6-phosphate [2]) [s⁻¹] | self-cleavage kobs at 10000 uM GlcN6P (glucosamine-6-phosphate [3]) [s⁻¹] | self-cleavage kobs at 640 uM GlcN6P (glucosamine-6-phosphate [4]) [s⁻¹] | self-cleavage kobs at 2500 uM GlcN6P (glucosamine-6-phosphate [5]) [s⁻¹] | self-cleavage kobs at 160 uM GlcN6P (glucosamine-6-phosphate [6]) [s⁻¹] | KM (glucosamine-6-phosphate [7]) [µM]
A64U C70G | 1.26e-05 ± 2.6e-06 | < 1e-05 | – | – | – | – | –
A64G U65G | 0.00619 ± 0.0017 | 5.76e-05 ± 1e-05 | 0.00489 ± 0.00066 | 0.000845 ± 0.00015 | 0.00174 ± 0.00029 | 0.000262 ± 6e-05 | 4490 ± 1700
C61U C70U | 3.98e-05 ± 5.3e-06 | – | 3.47e-05 ± 6e-06 | – | 3.31e-05 ± 1e-05 | – | –
U65A | 0.0061 ± 0.001 | 0.00012 ± 2.4e-06 | 0.00502 ± 0.00012 | 0.00117 ± 3.3e-05 | 0.00375 ± 0.00015 | 0.000336 ± 1.5e-05 | 2260 ± 500
C58U C67U | 2.38e-05 ± 3.4e-06 | – | 2.01e-05 ± 6.4e-06 | – | 2.92e-05 ± 8e-06 | – | –
G62C C68A | 1.29e-05 ± 3.6e-06 | – | – | – | – | – | –
C58U A64G | 0.00011 ± 1.9e-05 | – | 8.51e-05 ± 1.1e-05 | – | 5.74e-05 ± 1.1e-05 | – | –
G63C C67G | < 1e-05 | < 1e-05 | – | – | – | – | –
G59U C61A C67A | 1.63e-05 ± 4.2e-06 | – | – | – | – | – | –
C58U C70A | 2.29e-05 ± 6.9e-06 | – | – | 3.84e-05 ± 1.4e-05 | – | – | –
G59A C67U | 4.36e-05 ± 1.3e-05 | – | 3.54e-05 ± 9.1e-06 | – | – | – | –
U57G C58G C68U | 4.52e-05 ± 1.6e-05 | – | – | 7.15e-05 ± 2.1e-05 | – | – | –
C61U C71G | < 1e-05 | – | – | – | – | < 1e-05 | –
C58G C67G C70G | 5.76e-05 ± 2.6e-05 | – | – | 6.3e-05 ± 2.3e-05 | 8.09e-05 ± 3e-05 | – | –
G59U G62U C67G | < 1e-05 | – | – | – | – | < 1e-05 | –
G63U C67A | < 1e-05 | – | < 1e-05 | – | – | < 1e-05 | –
G63U C67U | < 1e-05 | < 1e-05 | – | < 1e-05 | – | – | –
C58A U65G | 5.13e-05 ± 1.3e-05 | – | 4.32e-05 ± 1.3e-05 | – | 4.93e-05 ± 1.3e-05 | – | –
C58U U69G | 4.53e-05 ± 1.7e-05 | 2.63e-05 ± 1.1e-05 | – | 6.7e-05 ± 1.6e-05 | 7.55e-05 ± 1.9e-05 | 5.15e-05 ± 1.5e-05 | –
G59A A64G | 9.06e-05 ± 1.3e-05 | < 1e-05 | 7.67e-05 ± 1.6e-05 | – | 6.66e-05 ± 2.7e-05 | – | –
G59A U65C | 1.55e-05 ± 5.6e-06 | – | – | – | – | – | –
G59A C68G | 1.72e-05 ± 2.3e-06 | – | – | – | – | – | –
G59A C68A | < 1e-05 | < 1e-05 | – | – | – | – | –
G59A C68U | 1.6e-05 ± 1.4e-06 | – | – | – | – | – | –
